These results are taken from patent publication US6025480.

In assay [1] the target is cyclin E-cdk2 (baculovirally coexpressed cyclin E and cdk2-HA).
Assay [2] has as its target cyclin A-cdk2 (baculovirally coexpressed cyclin A and cdk2-HA).

For the substance “flag-p57 (mouse p57^KIP2 tagged at the N-terminus with the flag epitope)”, the half-maximal inhibition of histone H1 kinase activity in assay [1] and in assay [2] was 0.5 nM each time.
